# Assay results from US20200140551A1 (GlaxoSmithKline, published 2020).
# T1: human ICOS on human T cells (human, UniProt Q9Y6W8 21-167)
# T1 construct: endogenous receptor on primary cells; also called ICOS on CD4+ and CD8+ T cells of healthy human donors
# T1 sequence: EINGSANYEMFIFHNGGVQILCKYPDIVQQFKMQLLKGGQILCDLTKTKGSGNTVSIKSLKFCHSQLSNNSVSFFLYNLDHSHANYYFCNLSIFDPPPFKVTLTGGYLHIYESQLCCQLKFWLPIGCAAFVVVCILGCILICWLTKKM
# Columns and labels:
# [1] = target: T1, human ICOS on human T cells; test: flow cytometry, activated human CD4 T cells, FITC MFI, median of donors
# Experimental: (§1) Binding of H2L5 hIgG4PE was assessed in both naive and activated CD3+ T cells.
# (§2) Either naive and/or activated CD3+ T cells were re-suspended in PBS with 0.1% BSA (FACS Buffer) containing Human FcR Blocking Solution at 2×10⁶ cells/mL (5 μl FcR Blocking Solution+[…] FACS Buffer per 1 mL). At a concentration of 2×10⁵ cells/well, 100 μl cells were placed into 2 mL 96 well Assay Blocks and incubated at room temperature for 15 minutes. During the incubation, a titration of the binding antibodies, anti-ICOS (H2L5 hIgG4PE) or IgG4 Isotype Control antibody was prepared as a 2× concentration. […] Following the binding incubation, cells were washed twice in 1 mL of FACS buffer, centrifuging at 400×g for 5 minutes at room temperature.
# (§3) Data acquisition and compensation were performed on BD FACS instruments, LSR Fortessa X-20 or FACS Canto II using BD Diva (ver. 8.0) software. Data analysis employed Flow Jo software (ver.10.0.8r1). Results are reported as both MFI (Median Fluorescence Intensity) and Percent of cells positive for human IgG kappa light chain FITC staining out of the total live cells or appropriate parent population. EC50s were determined using Graphpad Prism 5 software (ver. 5.04) with non-linear regression of transformed data (X=(log(X)) using a variable slope with 4 parameters (log(Agonist) vs. response—Variable slope).
# [2] = target: T1, human ICOS on human T cells; test: flow cytometry, activated human CD4 T cells, percent FITC positive, donor 1124F36
# Experimental: as §1, §2, §3
# [3] = target: T1, human ICOS on human T cells; test: cell-based or functional assay
# [4] = target: T1, human ICOS on human T cells; test: flow cytometry, activated human CD8 T cells, FITC MFI, donor 1124F36
# Experimental: as §1, §2, §3
# [5] = target: T1, human ICOS on human T cells; test: flow cytometry, activated human CD4 T cells, FITC MFI, mean of donors
# Experimental: as §2, §3
# [6] = target: T1, human ICOS on human T cells; test: flow cytometry, activated human CD4 T cells, percent FITC positive, donor 1141F45
# Experimental: as §2, §3
# [7] = target: T1, human ICOS on human T cells; test: flow cytometry, activated human CD8 T cells, FITC MFI, median of donors
# Experimental: as §2, §3
# [8] = target: T1, human ICOS on human T cells; test: flow cytometry, activated human CD4 T cells, percent FITC positive, mean of donors
# Experimental: as §1, §2, §3
# [9] = target: T1, human ICOS on human T cells; test: flow cytometry, activated human CD4 T cells, FITC MFI, donor 1141F45
# Experimental: as §1, §2, §3
binder,measurement,setting,value
"H2L5 hIgG4PE (antibody, also called 422 H2L5 hIgG4PE; H2L5 IgG4PE; copies: 2 + 2) heavy: not shown light: EIVLTQSPATLSLSPGERATLSCSASSSVSYMHWYQQKPGQAPRLLIYDTSKLASGIPARFSGSGSGTDYTLTISSLEPEDFAVYYCFQGSGYPYTFGQGTKLEIKRTVAAPSVFIFPPSDEQLKSGTASVVCLLNNFYPREAKVQWKVDNALQSGNSQESVTEQDSKDSTYSLSSTLTLSKADYEKHKVYACEVTHQGLSSPVTKSFNRGEC",EC50,[1],1.04 mg/L
same,EC50,[2],0.45 mg/L
same,"EC50, CD4+CD25+, PBMC activation assay, donor 185M45, 24 hr",[3],2.4 mg/L
same,"EC50, CD4+CD25+, PBMC activation assay, donor 185M45, 48 hr",[3],0.5 mg/L
same,"EC50, CD4+CD25+, PBMC activation assay, donor 1124F36, 24 hr",[3],0.6 mg/L
same,"EC50, CD4+CD25+, PBMC activation assay, donor 1124F36, 48 hr",[3],0.6 mg/L
same,"EC50, CD4+CD25+, PBMC activation assay, donor 1136F50, 24 hr",[3],0.3 mg/L
same,"EC50, CD4+CD25+, PBMC activation assay, donor 1136F50, 48 hr",[3],0.6 mg/L
same,"EC50, CD4+CD25+, PBMC activation assay, donor 1149M52, 24 hr",[3],0.6 mg/L
same,"EC50, CD4+CD25+, PBMC activation assay, donor 1149M52, 48 hr",[3],0.4 mg/L
same,"EC50, CD4+CD69+, PBMC activation assay, donor 185M45, 24 hr",[3],0.8 mg/L
same,"EC50, CD4+CD69+, PBMC activation assay, donor 1124F36, 24 hr",[3],1.1 mg/L
same,"EC50, CD4+CD69+, PBMC activation assay, donor 1124F36, 48 hr",[3],1.1 mg/L
same,"EC50, CD4+CD69+, PBMC activation assay, donor 1136F50, 24 hr",[3],0.5 mg/L
same,"EC50, CD4+CD69+, PBMC activation assay, donor 1136F50, 48 hr",[3],0.4 mg/L
same,"EC50, CD4+CD69+, PBMC activation assay, donor 1149M52, 24 hr",[3],0.5 mg/L
same,"EC50, CD4+CD69+, PBMC activation assay, donor 1149M52, 48 hr",[3],0.4 mg/L
same,"EC50, CD4+Ki67+, PBMC activation assay, donor 185M45, 48 hr",[3],0.6 mg/L
same,"EC50, CD4+Ki67+, PBMC activation assay, donor 1124F36, 48 hr",[3],0.8 mg/L
same,"EC50, CD4+Ki67+, PBMC activation assay, donor 1149M52, 48 hr",[3],0.5 mg/L
same,"EC50, CD4+OX40+, PBMC activation assay, donor 185M45, 24 hr",[3],1.6 mg/L
same,"EC50, CD4+OX40+, PBMC activation assay, donor 1124F36, 24 hr",[3],0.6 mg/L
same,"EC50, CD4+OX40+, PBMC activation assay, donor 1124F36, 48 hr",[3],1.2 mg/L
same,"EC50, CD4+OX40+, PBMC activation assay, donor 1136F50, 24 hr",[3],0.2 mg/L
same,"EC50, CD4+OX40+, PBMC activation assay, donor 1136F50, 48 hr",[3],0.4 mg/L
same,"EC50, CD4+OX40+, PBMC activation assay, donor 1149M52, 24 hr",[3],0.6 mg/L
same,"EC50, CD4+OX40+, PBMC activation assay, donor 1149M52, 48 hr",[3],0.4 mg/L
same,"EC50, CD8+CD25+, PBMC activation assay, donor 185M45, 24 hr",[3],2 mg/L
same,"EC50, CD8+CD25+, PBMC activation assay, donor 185M45, 48 hr",[3],0.5 mg/L
same,"EC50, CD8+CD25+, PBMC activation assay, donor 1124F36, 24 hr",[3],0.6 mg/L
same,"EC50, CD8+CD25+, PBMC activation assay, donor 1124F36, 48 hr",[3],0.5 mg/L
same,"EC50, CD8+CD25+, PBMC activation assay, donor 1136F50, 24 hr",[3],0.4 mg/L
same,"EC50, CD8+CD25+, PBMC activation assay, donor 1136F50, 48 hr",[3],0.7 mg/L
same,"EC50, CD8+CD25+, PBMC activation assay, donor 1149M52, 24 hr",[3],1 mg/L
same,"EC50, CD8+CD25+, PBMC activation assay, donor 1149M52, 48 hr",[3],0.4 mg/L
same,"EC50, CD8+CD69+, PBMC activation assay, donor 185M45, 24 hr",[3],1.2 mg/L
same,"EC50, CD8+CD69+, PBMC activation assay, donor 185M45, 48 hr",[3],0.5 mg/L
same,"EC50, CD8+CD69+, PBMC activation assay, donor 1124F36, 24 hr",[3],0.8 mg/L
same,"EC50, CD8+CD69+, PBMC activation assay, donor 1124F36, 48 hr",[3],1.1 mg/L
same,"EC50, CD8+CD69+, PBMC activation assay, donor 1136F50, 24 hr",[3],0.5 mg/L
same,"EC50, CD8+CD69+, PBMC activation assay, donor 1136F50, 48 hr",[3],0.6 mg/L
same,"EC50, CD8+CD69+, PBMC activation assay, donor 1149M52, 24 hr",[3],0.6 mg/L
same,"EC50, CD8+CD69+, PBMC activation assay, donor 1149M52, 48 hr",[3],0.4 mg/L
same,"EC50, CD8+Ki67+, PBMC activation assay, donor 185M45, 48 hr",[3],0.4 mg/L
same,"EC50, CD8+Ki67+, PBMC activation assay, donor 1124F36, 48 hr",[3],0.7 mg/L
same,"EC50, CD8+Ki67+, PBMC activation assay, donor 1149M52, 48 hr",[3],0.3 mg/L
same,"EC50, CD8+OX40+, PBMC activation assay, donor 185M45, 24 hr",[3],1.6 mg/L
same,"EC50, CD8+OX40+, PBMC activation assay, donor 1124F36, 24 hr",[3],2.4 mg/L
same,"EC50, CD8+OX40+, PBMC activation assay, donor 1124F36, 48 hr",[3],0.5 mg/L
same,"EC50, CD8+OX40+, PBMC activation assay, donor 1136F50, 24 hr",[3],0.3 mg/L
same,"EC50, CD8+OX40+, PBMC activation assay, donor 1136F50, 48 hr",[3],0.5 mg/L
same,"EC50, CD8+OX40+, PBMC activation assay, donor 1149M52, 24 hr",[3],1.5 mg/L
same,"EC50, CD8+OX40+, PBMC activation assay, donor 1149M52, 48 hr",[3],0.3 mg/L
same,"EC50, IFN-γ, PBMC activation assay, donor 185M45, 24 hr",[3],0.3 mg/L
same,"EC50, IFN-γ, PBMC activation assay, donor 185M45, 48 hr",[3],0.7 mg/L
same,"EC50, IFN-γ, PBMC activation assay, donor 1124F36, 24 hr",[3],0.3 mg/L
same,"EC50, IFN-γ, PBMC activation assay, donor 1124F36, 48 hr",[3],0.5 mg/L
same,"EC50, IFN-γ, PBMC activation assay, donor 1136F50, 24 hr",[3],0.4 mg/L
same,"EC50, IFN-γ, PBMC activation assay, donor 1136F50, 48 hr",[3],1.5 mg/L
same,"EC50, IFN-γ, PBMC activation assay, donor 1149M52, 24 hr",[3],0.2 mg/L
same,"EC50, IFN-γ, PBMC activation assay, donor 1149M52, 48 hr",[3],0.6 mg/L
same,"EC50, IL-6, PBMC activation assay, donor 185M45, 24 hr",[3],0.7 mg/L
same,"EC50, IL-6, PBMC activation assay, donor 185M45, 48 hr",[3],0.8 mg/L
same,"EC50, IL-6, PBMC activation assay, donor 1136F50, 24 hr",[3],0.7 mg/L
same,"EC50, IL-6, PBMC activation assay, donor 1136F50, 48 hr",[3],1.1 mg/L
same,"EC50, IL-6, PBMC activation assay, donor 1149M52, 24 hr",[3],0.2 mg/L
same,"EC50, IL-6, PBMC activation assay, donor 1149M52, 48 hr",[3],0.3 mg/L
same,"EC50, IL-10, PBMC activation assay, donor 185M45, 24 hr",[3],0.7 mg/L
same,"EC50, IL-10, PBMC activation assay, donor 185M45, 48 hr",[3],0.8 mg/L
same,"EC50, IL-10, PBMC activation assay, donor 1124F36, 24 hr",[3],0.7 mg/L
same,"EC50, IL-10, PBMC activation assay, donor 1124F36, 48 hr",[3],0.6 mg/L
same,"EC50, IL-10, PBMC activation assay, donor 1136F50, 24 hr",[3],1.7 mg/L
same,"EC50, IL-10, PBMC activation assay, donor 1136F50, 48 hr",[3],1.3 mg/L
same,"EC50, IL-10, PBMC activation assay, donor 1149M52, 24 hr",[3],0.5 mg/L
same,"EC50, IL-10, PBMC activation assay, donor 1149M52, 48 hr",[3],0.6 mg/L
same,"EC50, IL-17a, PBMC activation assay, donor 185M45, 24 hr",[3],0.8 mg/L
same,"EC50, IL-17a, PBMC activation assay, donor 185M45, 48 hr",[3],1.1 mg/L
same,"EC50, IL-17a, PBMC activation assay, donor 1124F36, 24 hr",[3],0.6 mg/L
same,"EC50, IL-17a, PBMC activation assay, donor 1124F36, 48 hr",[3],0.8 mg/L
same,"EC50, IL-17a, PBMC activation assay, donor 1136F50, 24 hr",[3],1.4 mg/L
same,"EC50, IL-17a, PBMC activation assay, donor 1136F50, 48 hr",[3],1.6 mg/L
same,"EC50, IL-17a, PBMC activation assay, donor 1149M52, 24 hr",[3],0.7 mg/L
same,"EC50, IL-17a, PBMC activation assay, donor 1149M52, 48 hr",[3],1 mg/L
same,"EC50, TNF-α, PBMC activation assay, donor 185M45, 48 hr",[3],0.5 mg/L
same,"EC50, TNF-α, PBMC activation assay, donor 1124F36, 48 hr",[3],0.3 mg/L
same,"EC50, TNF-α, PBMC activation assay, donor 1136F50, 48 hr",[3],0.3 mg/L
same,"EC50, TNF-α, PBMC activation assay, donor 1149M52, 48 hr",[3],0.2 mg/L
same,EC50,[4],0.564 mg/L
same,EC50,[5],0.977 mg/L
same,EC50,[6],0.965 mg/L
same,EC50,[7],0.652 mg/L
same,EC50,[8],0.763 mg/L
same,EC50,[9],1.27 mg/L
